# Reference: FireProtDB (doi:10.1021/bi00212a026)
# B1: Ribonuclease wild type, P00648 (protein)
# chain: MMKMEGIALKKRLSWISVCLLVLVSAAGMLFSTAAKTETSSHKAHTEAQVINTFDGVADYLQTYHKLPDNYITKSEAQALGWVASKGNLADVAPGKSIGGDIFSNREGKLPGKSGRTWREADINYTSGFRNSDRILYSSDWLIYKTTDHYQTFTKIR
# Details: Bacillus amyloliquefaciens; pH 6.3; 25 °C; Urea; Fluorescence; MES 50 mM; NaCl 0.15 M; reversible: yes; whole UniProt chain shown
protein,measurement,value
B1,denaturant m value,1.92 kcal/mol/M
same,denaturant midpoint (higher = more stable),4.58 M
same,unfolding free energy,8.79 kcal/mol
